The target in this series is T1, ApaLI restriction endonuclease (apaLIR product, 375 aa) (Acetobacter pasteurianus) (UniProt O52703).
T1 sequence: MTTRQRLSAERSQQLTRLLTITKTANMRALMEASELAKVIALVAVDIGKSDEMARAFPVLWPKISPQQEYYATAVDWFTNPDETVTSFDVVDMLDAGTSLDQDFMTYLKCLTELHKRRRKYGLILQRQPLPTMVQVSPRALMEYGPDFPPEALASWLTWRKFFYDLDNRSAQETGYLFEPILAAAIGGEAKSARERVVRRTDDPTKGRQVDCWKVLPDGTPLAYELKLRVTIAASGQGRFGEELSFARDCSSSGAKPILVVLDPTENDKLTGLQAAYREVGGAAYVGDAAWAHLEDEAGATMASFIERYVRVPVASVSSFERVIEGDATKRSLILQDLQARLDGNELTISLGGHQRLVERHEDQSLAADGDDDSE
Description: cleavage_in_vitro. The settings on record: diluted cell extract, 1 ug lambda DNA, 1 h, 37 C.

The record followed here is patent publication US5616484.

lambda DNA displayed an activity (units/g wet cells) of 1e+06.
